# From US20190055322A1
# “And” between values parts separate entries of the source, which are not always exact repeats. Identical values can stand only once.
# B1: Nanobody 319 (13F07-40GS-6B05) (VHH)
# chain: EVQLVESGGGLVQAGGSLRLSCAASGNTFSTNPMYWYRQAEGKQRELVASISSRGITNYADSVRGRFSISRDNTKDTVYLQMNSLKPEDTAVYYCRLASLSSGTVYWGKGTLVTVSSGGGGSGGGGSGGGGSGGGGSGGGGSGGGGSGGGGSGGGGSEVQLVESGGGLVQPGGSLRLSCAASGSIFSINTMGWYRQAPGKQRELVSTITSNLVPHYADSVQGRFTISRDNARNTVYLQMNSLKPQDTAHYYCNAWARSSGATPYTNYWGQGTLVTVSS
# B2: Nanobody 285 (13F07-40GS-2B02) (VHH)
# chain: EVQLVESGGGLVQAGGSLRLSCAASGNTFSTNPMYWYRQAEGKQRELVASISSRGITNYADSVRGRFSISRDNTKDTVYLQMNSLKPEDTAVYYCRLASLSSGTVYWGKGTLVTVSSGGGGSGGGGSGGGGSGGGGSGGGGSGGGGSGGGGSGGGGSEVQLVESGGGLVQPGDSLRLSCAASGRILSINNMVWYRQAPGKQRELVAHITSSGSTGYADSVKGRFTISRDNAKNTFYLQMTNLNPEDTAVYYCNCWVSSDSNAPLKNYWGQGTLVTVSS
# B3: Nanobody 335 (5H01-40GS-1E11) (VHH)
# chain: EVQLVESGGGLVQPGGSLRLSCAASGSTLDYYAIGWFRQAPGKEREGVSCTSNSGSTYYGGSVKGRFTASRDNAKNTVYLQMNSLRPEDTAVYYCVATIGCATLGGTLDVQRYYYRGQGTLVTVSSGGGGSGGGGSGGGGSGGGGSGGGGSGGGGSGGGGSGGGGSEVQLVESGGGLVQPGGSLRLSCAASGSTRSVNPMAWFRQAPGRQREWVATISRSGYATYADSVKGRFTISGDNAKSSVYLQMNSLKPEDTAVYYCVTGTYWGQGTLVTVSS
# Target: different PcrV variants and reference strain PAO1 (23 PcrV sequence variants, GST-PcrV-His6)
row,Binder,EC50
1,B1,0.08 nM and 0.1 nM
2,B2,0.1 nM
3,B3,0.07 nM and 0.09 nM
